Reference: article PMC4125734 (Molecular & Cellular Proteomics : MCP, 2014)
Where “and” joins values, the source holds several entries; their conditions need not be identical. Equal values may be shown once. Read-outs that look alike come from different tables or passages of the source.

What was measured:
14-3-3γ [1] = biological target: 14-3-3γ (UniProt P61981); assay: negative-stain electron microscopy
14-3-3γ [2] = biological target: 14-3-3γ (UniProt P61981); assay: native MS
14-3-3γ [3] = biological target: 14-3-3γ (UniProt P61981); assay: native MS; remark: listed apart in the source
14-3-3γ [4] = biological target: 14-3-3γ (UniProt P61981); assay: SPR
14-3-3γ [5] = biological target: 14-3-3γ (UniProt P61981); assay: negative-stain electron microscopy; remark: listed apart in the source
14-3-3γ [6] = biological target: 14-3-3γ (UniProt P61981); assay: native MS; remark: listed apart in the source
GST-14-3-3γ [7] = biological target: GST-14-3-3γ (UniProt P61981); assay: SPR
GST-14-3-3γ [8] = biological target: GST-14-3-3γ (UniProt P61981); assay: SPR; remark: listed apart in the source
GST-14-3-3γ [9] = biological target: GST-14-3-3γ (UniProt P61981); assay: SPR; remark: listed apart in the source
native MS = biological target: the molecule itself; assay: native MS

Molecule | stoichiometry N (14-3-3γ dimers per TH tetramer) (14-3-3γ [1]) | stoichiometry N (14-3-3γ dimers per TH tetramer) (14-3-3γ [2]) | stoichiometry N (14-3-3γ dimers per TH tetramer) (14-3-3γ [3]) | dissociation rate constant of the smaller, rapidly dissociating population (14-3-3γ [4]) [s⁻¹] | kon (14-3-3γ [4]) [M⁻¹ s⁻¹] | stoichiometry N (14-3-3γ dimers per TH tetramer) (14-3-3γ [5]) | stoichiometry N (14-3-3γ dimers per TH tetramer) (14-3-3γ [6]) | Kd (14-3-3γ [4]) [nM] | koff (14-3-3γ [4]) [s⁻¹] | kon (GST-14-3-3γ [7]) [M⁻¹ s⁻¹] | koff (GST-14-3-3γ [8]) [s⁻¹] | kon (GST-14-3-3γ [8]) [M⁻¹ s⁻¹] | kon (GST-14-3-3γ [9]) [M⁻¹ s⁻¹] | stoichiometry N (native MS)
human tyrosine hydroxylase isoform 1 phosphorylated on Ser19 (TH-pS19), full stoichiometry (from UniProt P07101-3 1-497) (enzyme) | 1 | 2 | 1 | 0.018 | 144000 | 2 | 2 |  |  |  |  |  |  | 
human tyrosine hydroxylase isoform 1 phosphorylated on both Ser19 and Ser40 (TH-pS19pS40) (from UniProt P07101-3 1-497) (enzyme) |  | 2 |  | 0.018 | 159000 |  |  | 2.1 | 0.00036 |  |  |  |  | 
human tyrosine hydroxylase isoform 1 phosphorylated on Ser19 to low stoichiometry (TH-pS19L) (from UniProt P07101-3 1-497) (enzyme) |  | 1 and 2 |  | 0.019 | 780000 |  |  | 0.57 | 0.00045 to 0.00051 | 1.8e+06 | 0.00063 to 0.00069 | 2.4e+06 | 1.2e+06 | 
14-3-3γ (natural protein) VDREQLVQKARLAEQAERYDDMAAAMKNVTELNEPLSNEERNLLSVAYKNVVGARRSSWRVISSIEQKTSADGNEKKIEMVRAYREKIEKELEAVCQDVLSLLDNYLIKNCSETQYESKVFYLKMKGDYYRYLAEVATGEKRATVVESSEKAYSEAHEISKEHMQPTHPIRLGLALNYSVFYYEIQNAPEQACHLAKTAFDDAIAELDTLNEDSYKDSTLIMQLLRDNLTLWTSDQQDDDGGEGNN |  |  |  |  |  |  |  |  |  |  |  |  |  | 2
